Measured values taken from the supplement of paper PMC9170038.

Test system: K4 kissing-loop RNA reporter
Test: apparent KD of K4 kissing-loop reporter; higher = weaker reporter binding
Conditions: Eterna round: R107
Description: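 RNA-MaP round R107: designed RNA switches with theophylline, tryptophan, arginine or FMN aptamers are transcribed on-chip within common flanks. They are titrated with a labelled K4 kissing-loop RNA reporter in RNA-MaP buffer (100 mM Tris pH 7.5, 80 mM KCl, 4 mM MgCl2), without ligand or with the indicated ligand. Median apparent KD per design.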

[1] = input ligand: theophylline 20 uM
[2] = input ligand: tryptophan 2.4 mM
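Note: bound reporter read as fluorescence of individual clusters on recovered sequencing chips by microscopy, with normalized cluster intensities fitted with a binding model.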

Row | Sequence | apparent KD of K4 kissing-loop reporter (input ligand: FMN 200 uM) [nM] | apparent KD of K4 kissing-loop reporter (input ligand: arginine 13.2 mM) [nM] | apparent KD of K4 kissing-loop reporter (input ligand: none) [nM] | apparent KD of K4 kissing-loop reporter [1] [nM] | apparent KD of K4 kissing-loop reporter [2] [nM]
1 | AGCAGCAAAUCCUAGUGAUGUUAGGAUAUGUAGGAUAUCGGGAUACCGAGAAGGACAGAAGGAGGAGUGAUGUUCCUAAGCUGCA [FmnAX 24 #DoubleAptamer #DoubleK4 #SwitchBubble] | 143 | 112 | 114 | 122 | 107
2 | UUCUAACACACCGAUACCAGAGCCCAGUGAUGUUGGGCCUAGGUCGGAUGCUCACUGACGCUCCCUUGGCAGCGGUGGGCUAACC [Arreisve] | 127 | 112 | 116 | 110 | 114
3 | UCGCAUCUCAGAAGGAGCGACAGUGAUUCUGAUAGAAAUCUGAGUGAUGUUCAGAACAGCUGUCAGGUAGGUCGCUGAGAUGCGA [Arg B Ex t8] | 813 | 384 | 547 | 413 | 314
4 | AUGGGCGAGGUAACGUGGAUAUCUCGUCGCAAGGAUAUCUGGAAACAGAGAAGGUGCUACAUUACCGGCAGUGAUGUUGCUGACC | 959 | 231 | 559 | 263 | 131
5 | GGAGGAGAAUAUGAUACCAGCAGAGAGAGAGAGGAAGUAUAGUGAUGUUAUAUGUGAGAAUGCCCUUGGCAGCAUAACAUGAAGG [whbob_SS_Theo_B_sa90] | 288 | 193 | 211 | 454 | 159
6 | UGUGUUUACCUGACUCAGUGAUGUUGAGAAGGAGCGUGGGAAACCACAGGUAGGUCGCUCAACCUAAAUUCAGGUGAGCACUAAA | 327 | 219 | 399 | 303 | 231
7 | GGGAGGAUUAAAUAAAUAAAUAAGAUAGAUACCAGUUGAGAGUAAGGCCCUUGGCAGCUAAAACGAGUGAUGUUCGAGUAAAUCC [Default title] | 81.6 | 88.8 | 63 | 147 | 62.4
8 | UGUAUGUGAUUUGAUACCAGACCAGCUGGUGGUAUAUGAGUGAUGUUCAUGUUGGUGUGGGUCCCUUGGCAGCAAAUCGCAUACU [KL-SSTheoB9] | 242 | 161 | 237 | 164 | 183
9 | AAAAUAAAUCAGUGAUGUUGGUAUCUGGAUACCAGCGAUAAUAGUCGCCCUUGGCAGCCAUGGACGUACAAAAUAAGUACGUCCU [MatMod 19 - Jieux - Same State - Theophylline A] | 221 | 117 | 183 | 170 | 160
10 | CCUAUCUCAUACGAUACCAGUGAUUAACCAGUGAUGUUGGAAUAACCAAGGAAUAUUUUUCACCCUUGGCAGCGUAUGGGAUAGG [Ex Theophylline B K4 26] | 78 | 38 | 59.1 | 61.9 | 49.6
11 | AAUAAGGUCGCCGAUACCAGCGCAGGCAGAGCAAAGCUCUGCCUGGUAGUGAUGUUACCGCGCCCUUGGCAGCGGUGGCACGACC [Omei KL Theo B SS C v5] | 64.8 | 27.1 | 71.3 | 71.7 | 85.9
12 | AGGCACGAGCAAGGAUAUCGAGUAGAGUGAUGUUCUGCCUGGGUUGGCUCGUAAGGGCCUUCCCAGCGAGAAGGUGCUCGUGCCU [#2 Same State - FMN A Attempt #15 (HarryS)] | 221 | 632 | 877 | 581 | 757
13 | ACGAUCAUGGCAGGAUAUACGAAUGCAUUAGGGCUGCCAGUGAUGUUGGUGGACCGAGGACGUAGAGUAGAAGGGCCGACUUAAA [Leonmain] | 138 | 169 | 139 | 86.4 | 157
14 | GGCCGGAAGGCGAGCGCUCCCACUCCGGAAGGAGCGCCCGUAAGGGCAGGUAGGUCGCCGGAGUGAUGUUCCGGUGGAGGGCUCG [#2 Exclusion - Arginine A Attempt #21 (Inspired by Omei)] | 165 | 106 | 180 | 302 | 186
15 | AGGAUGUAGUGAUGUUAUAUAAGAAGUAAACGAGGACCGGUACGGCCGCCACUCGAAGCGGCUACUAGCGCGCCGCGAGGCGCGC [ExTryptoA.Cb] | 370 | 391 | 958 | 361 | 358
16 | GAGAUAGAGGCGGCCGCCACUAGUGAUGUUAGUGAUGUUAGAUAGAGAAUAUAACAGGGAUUAGAUAGGACCGGGCCAGAUGGAG ['lljullin] | 116 | 104 | 130 | 103 | 100
17 | CAUAUAUACACUAACCCGUACGGUAGUAAGCGAGGACCGGUACGGCCGCCACUCGAUCGUUUCGUGUUAGCACCAGUGAUGUUGG [theeternabot_sameState_KL_Trp_A_3] | 461 | 399 | 526 | 431 | 392
18 | AAUAAGCAUGGAAGGAGCGUAGUCCAGUGAUGUUGGAGUUAAAUACCAGUGAUGUUGGUUAUACAGGUAGGUCGCCAUAAAGCUU [Exclusion Arginine B Gf 6] | 92.4 | 64.8 | 89.3 | 83.2 | 75.4
19 | CGCAGUGAUGUUGCGAGUAGCUACAGGGAAGGAGCGCUUUAGUAAGCAGGUAGGUCGCCCACGCAGUGAUGUUGCGUCAUAGGGU [Exclusion Arginine A GF 19] | 118 | 106 | 108 | 109 | 88.4
20 | CCCGUACCAGUGAUGUUGGUAUGGUCUGAUACCAGUCUGUAGUCGGGCCCUUGGCAGCAGACCCUUGCCAAGGUGACGACUCCGG [Qu] | 128 | 146 | 126 | 131 | 132
21 | GGUAGCAUGGCGGCCGCCACUAAGAGAGUGAUGUUCUCUUAGUUUUUUGAUAUAUUAUCAAUUCUUAGGACCGGGCCAUGCUACC | 121 | 79.9 | 94.7 | 98.9 | 100
